In patent US20220119534A1 (DRAGONFLY THERAPEUTICS, published 2022) one finds Kd, koff and kon data, which are given here for one molecule.

Residue numbers refer to the chain shown, from its start.

In one test the target is T1, mFc-cNKG2D (cynomolgus monkey, UniProt P61252 73-216).
T1 construct: extracellular domain; Made in house (Dragonfly Tx); also called recombinant cyno NKG2D extracellular domain (ECD); mFc-tagged cyno NKG2D dimer; not shown: mouse Fc tag
T1 sequence (looked up): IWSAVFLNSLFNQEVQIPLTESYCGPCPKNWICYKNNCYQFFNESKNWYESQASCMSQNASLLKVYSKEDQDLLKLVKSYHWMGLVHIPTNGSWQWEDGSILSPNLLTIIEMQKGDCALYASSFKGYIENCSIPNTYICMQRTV
Briefly: SPR Biacore 37 C; mFc-tagged cyno NKG2D dimer, TriNKET as analyte; kinetics fit; average of 4. On the technique in general: In SPR one partner is held on a chip, and binding of the other changes the refractive index at the surface.

The target of test [1] is T2, Human CD16a V158 (FcγRIIIa V158) (human, UniProt P08637 17-208, biotinylated (site not stated)).
T2 construct: V158 is the allele name in mature numbering; also called hCD16aV; hCD16a V158
T2 sequence (P08637 17-208 F176V limits assumed): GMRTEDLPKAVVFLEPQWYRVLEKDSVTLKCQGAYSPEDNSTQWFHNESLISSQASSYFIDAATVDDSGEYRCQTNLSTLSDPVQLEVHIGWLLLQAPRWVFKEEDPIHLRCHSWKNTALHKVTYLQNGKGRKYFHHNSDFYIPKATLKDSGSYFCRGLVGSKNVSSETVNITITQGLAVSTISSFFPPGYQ
As to the kind of experiment: SPR; biotinylated CD16a V158 captured on SA chip, TriNKET as analyte; 1:1 kinetic fit; control sample.

A further test has as its target T3, mFc-hNKG2D (human, UniProt P26718 73-216).
T3 construct: extracellular domain; Made in house (Dragonfly Tx); the order of tag and ECD follows the name mFc-hNKG2D; also called mFc-tagged human NKG2D; not shown: mouse Fc tag
T3 sequence (looked up): T1 sequence (looked up) with N43D, I133T
As to the kind of experiment: SPR Biacore 8K 37 C; mFc-hNKG2D captured on anti-mFc chip, TriNKET as analyte; steady state fit; control sample, n=3.

Test [2] addresses T4, Human CLEC12A-His (human, UniProt Q5QGZ9 65-265).
T4 construct: Recombinant soluble protein made in house (Dragonfly Tx); The hCLEC12A spot of the HuProt array is written under this molecule as well; also called hCLEC12A-His; hCLEC12A; not shown: His tag
T4 sequence: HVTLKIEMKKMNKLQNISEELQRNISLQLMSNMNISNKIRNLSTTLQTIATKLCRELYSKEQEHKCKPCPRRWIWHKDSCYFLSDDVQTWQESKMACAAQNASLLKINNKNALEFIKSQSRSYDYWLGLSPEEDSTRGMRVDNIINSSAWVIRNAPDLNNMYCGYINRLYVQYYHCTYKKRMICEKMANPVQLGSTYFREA
As to the kind of experiment: SPR Biacore 8K 37 C; TriNKET captured on anti-hFc chip, hCLEC12A-His as analyte; 1:1 fit; after 2 wks 40 C at pH 8.0, n=2.

In test [3] the target is T4, Human CLEC12A-His. As to the kind of experiment: SPR Biacore 8K 37 C; TriNKET captured on anti-hFc chip, hCLEC12A-His as analyte; 1:1 fit; after 2 wks 2-8 C in CST pH 7.0, n=2.
Protocol: Briefly, human Fc specific antibodies were covalently immobilized at a density ˜8000-10000 resonance units (RU) on carboxy methyl dextran matrix of a CM5 biosensor chip via amine-coupling chemistry to create an anti-hFc IgG chip. […] Association was monitored for 300 seconds and dissociation was monitored for 600 seconds. Surfaces were regenerated between cycles with three pulses of 10 mM glycine-HCl, pH 1.7 injected for 20 seconds at 100 μL/min. HBS-EP+ (1×) with 0.1 mg/mL BSA buffer was used throughout the experiment. Data were analyzed using Biacore 8K Insight evaluation software (GE Healthcare). The kinetic rate constants and overall affinity were obtained using 1:1 kinetic fit binding model (FIGS. 71A-71B).

Protocol for mFc-hNKG2D: Association was monitored for 60 seconds and dissociation was monitored for 60 seconds. Surfaces were regenerated between cycles with three pulses of 10 mM glycine-HCl, pH 1.7 injected for 20 seconds at 100 μL/min. HBS-EP+ (1×) buffer was used throughout the experiment. Data were analyzed using Biacore 8K Insight evaluation software (GE Healthcare).

B1: F3'-1602 TriNKET (bispecific antibody, human IgG1, kappa)
chain: QLQLQESGPGLVKPSETLSLTCTVSGFSLTNYGLHWIRQPPGKCLEWIGVIWSGGKTDYNPSLKSRVTISKDTSKNQFSLKLSSVQAADTAVYYCAKYDYDDSLDYWGQGTLVTVSSGGGGSGGGGSGGGGSGGGGSDIQMTQSPSSLSASVGDRVTITCHASQNINFWLSWYQQKPGKAPKLLIYEASNLHTGVPSRFSGSGSGTRFTLTISSLQPEDIATYYCQQSHSYPLTFGCGTKLEIKGSDKTHTCPPCPAPELLGGPSVFLFPPKPKDTLMISRTPEVTCVVVDVSHEDPEVKFNWYVDGVEVHNAKTKPREEQYNSTYRVVSVLTVLHQDWLNGKEYKCKVSNKALPAPIEKTISKAKGQPREPRVYTLPPCRDELTKNQVSLTCLVKGFYPSDIAVEWESNGQPENNYKTTPPVLVSDGSFTLYSKLTVDKSRWQQGNVFSCSVMHEALHNHYTQKSLSLSPG
heavy: EVQLVESGGGLVKPGGSLRLSCAASGFTFSSYSMNWVRQAPGKGLEWVSSISSSSSYIYYADSVKGRFTISRDNAKNSLYLQMNSLRAEDTAVYYCARGAPIGAAAGWFDPWGQGTLVTVSSASTKGPSVFPLAPSSKSTSGGTAALGCLVKDYFPEPVTVSWNSGALTSGVHTFPAVLQSSGLYSLSSVVTVPSSSLGTQTYICNVNHKPSNTKVDKKVEPKSCDKTHTCPPCPAPELLGGPSVFLFPPKPKDTLMISRTPEVTCVVVDVSHEDPEVKFNWYVDGVEVHNAKTKPREEQYNSTYRVVSVLTVLHQDWLNGKEYKCKVSNKALPAPIEKTISKAKGQPREPQVCTLPPSRDELTENQVSLTCLVKGFYPSDIAVEWESNGQPENNYKTTPPVLDSDGSFFLYSWLTVDKSRWQQGNVFSCSVMHEALHNHYTQKSLSLSPG
light: DIQMTQSPSSVSASVGDRVTITCRASQGISSWLAWYQQKPGKAPKLLIYAASSLQSGVPSRFSGSGSGTDFTLTISSLQPEDFATYYCQQGVSFPRTFGGGTKVEIKRTVAAPSVFIFPPSDEQLKSGTASVVCLLNNFYPREAKVQWKVDNALQSGNSQESVTEQDSKDSTYSLSSTLTLSKADYEKHKVYACEVTHQGLSSPVTKSFNRGEC
notes: Trispecific F3' format: CLEC12A scFv-Fc paired with NKG2D Fab-Fc; Stressed and control samples of the stability studies are the same molecule; also called AB0237
What is called Kd is the concentration at which binding is half-saturated. Low values mean higher affinity, high ones lower affinity. By koff is commonly meant a measure of how fast the partners let go of each other. A lower koff goes with slow dissociation. Broadly, the kon is the second-order rate constant of association. Higher therefore signals fast association. B1: the dissociation constant (Kd) in the test with mFc-cNKG2D came to 839 nM; in test [1] it was 212 nM; in the test with mFc-hNKG2D it was 664 nM; in the test with Human CLEC12A-His [2], 1 nM; with Human CLEC12A-His [3], 0.89 nM. The results for the koff (in test [1]; with Human CLEC12A-His [2]; in the test with Human CLEC12A-His [3]) were 0.024 s⁻¹, 0.000845 s⁻¹ and 0.0006 s⁻¹, respectively. Moreover, the kon in test [1] amounted to 113000 M⁻¹ s⁻¹; with Human CLEC12A-His [2], 835000 M⁻¹ s⁻¹; with Human CLEC12A-His [3], 672000 M⁻¹ s⁻¹.
